Values quoted from earlier work in patent US11850285B2, “Insulin-responsive glucagon delivery patch” (North Carolina State University, priority 2017, dated 2023).

Conditions: in vivo

Insulin glargine
duration: up to 24 hour
